Laboratory results: article PMC7761207, “Molecular Characterization of the Burkholderia cenocepacia dcw Operon and FtsZ Interactors as New Targets for Novel Antimicrobial Design” (Antibiotics, 2020)
Like-named read-outs stand apart in the source and are kept apart here.

T1: MraZ (Burkholderia cenocepacia J2315) (UniProt B4E6K1)
T1 sequence: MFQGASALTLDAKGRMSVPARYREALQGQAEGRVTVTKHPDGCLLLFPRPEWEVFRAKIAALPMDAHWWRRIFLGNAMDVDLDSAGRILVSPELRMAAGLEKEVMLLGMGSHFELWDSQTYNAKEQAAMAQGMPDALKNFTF

B1: B. cenocepacia J2315 FtsZ, BACTH hybrid (natural protein, Burkholderia cenocepacia J2315, UniProt B4E5Y7 1-398, looked up)
chain: MEFEMLETETNGTIIKVVGVGGAGGNAVQHMINRGVQGVDFIVMNTDAQALSRSRASSVIQLGNTGLGAGAKPEMGRAAAEEARERIADALRGAHMVFITAGMGGGTGTGAAPVVAQIAKEMGILTVGVVSKPFEFEGGKRMRVAEAGSQQLEDHVDSLIVVLNDKLFDVMGDDAEMDKCFQCADDVLNNAVAGIAEIINVDGLVNVDFEDVKTVMGEQGKAMMGTATVAGVDRARLAAEQAVASPLLEGVDLSGARGVLVNITSSRSLRLSETREVMNTIKSYAAEDATVIFGAVYDDAMGDALRVTVVATGLGRAAKKQQSAPMTLLRTGTDNQPVSAVSHGYAPAQHVSTADYGALDTPAVWRNSRETAASHVQALQEKGVDTYDIPAFLRKQAD
notes: FtsZ of Burkholderia cenocepacia J2315; gene amplified from genomic DNA; Cloned in all four BACTH vectors (pUT18, pUT18C, pKT25, pKNT25); by its place between BCAL3458 and BCAL3456 probably BCAL3457 (surmised); source: bacterial two-hybrid (BACTH) fusion, E. coli BTH101
B2: putative SulA (pBCA006) of B. cenocepacia J2315, BACTH hybrid (natural protein, Burkholderia cenocepacia J2315, UniProt B4EQP0 1-238, looked up)
chain: MHPALAHPEAIHPALWRASQLARPSVRGVDTGHLELTAELPGGGWPAGALIELLAPQPGIGELRLLAPVLARTAGKPVMLIQPPHALQPLALAYWGIDPSGFVTLPAPRTADALWAAEQALRAGTCAAVLLWQSHVRADALRRLNLAAQSGQALFYLFRPVAAARDASPAPLRLALAPKRDGIDVTFLKRRGPARDTPLFVPLSPSPILLNRHASLDRRASAAPQPRSVPATIAGAVA
notes: putative SulA, product of gene pBCA006 of Burkholderia cenocepacia J2315; Cloned in all four BACTH vectors; source: bacterial two-hybrid (BACTH) fusion, E. coli BTH101
B3: B. cenocepacia J2315 ZipA, BACTH hybrid (natural protein, Burkholderia cenocepacia J2315, UniProt B4ECN7 1-424, looked up)
chain: MDELTLGLIGAGAVVVGGVVVYNAWQGAKVRRRMPRPMPEEAAEAMNRPERDEELPFIEPVRQPVRREPAAPVAAATAAAETARVEPTFGGAAPADTPADLQAEATGVDTSAESSEPAAGEEAVPAATHDAAAEPAEPTEPVMPAATTVSSAPPAIVDRRIDCIVPIRLTGPLPGDKILPVAQRLRRAGSKPVHIEGKPEGGQWELLQNGVRYEELRAAAQLANRSGALNELEFSEFVTGVQQFADAIDGAPEFPDMMETVAMARELDAFAAQCDAQLSINVMSDGAPWSANYVQAVASQDGLLLSRDGTRFVKLDAKQNPVFMLQFGDTNFLRDDLTYKGGNMITLVLDVPVAEEDILPFRLMCDYAKSLSERIGARVVDDSRRPLPESTLLAIEQQLMKLYAKLEEAGIPAGSPVTRRLFSQ
notes: ZipA of Burkholderia cenocepacia J2315 (gene zipA, BCAL2097); Cloned in all four BACTH vectors; source: bacterial two-hybrid (BACTH) fusion, E. coli BTH101
B4: B. cenocepacia J2315 FtsA, BACTH hybrid (natural protein, Burkholderia cenocepacia J2315, UniProt B4E6I8 1-410, looked up)
chain: MSKDYKDLLVSLDIGTSKVVAIVAELKGEGHYEVIGLGQSESKGLKKGVVVNIEATVQSIQRALEEAELMADCKITNVFTGIAGSHIRSFNSSGMVAIKDKEVTQTDVARVIETAKAINIPTDQQVLHILTQEFIIDGQEDVREPIGMSGIRLEVKVHIVTGAVSAAQNIVKCVRRCGLEVNDLILQPLASSLAVLTEDEKDLGVVLVDIGGGTTDIAIFAEGAIRHTAVIPIAGDQITSDIAMALRTPTPDAEDIKVGYGIAKQALADPDEMVEVPGLGERGPRTLSRQALAAVIEPRVEELFSLVQQVVRESGYEELLSSGVVITGGASMMPGMVELGEDIFLKPVRIGAPEYAGGLSDVVRNPRYSTAMGLLVEGSAQRMRGRKVAVQSGNAGQVFSRMKEWFLSNF
notes: FtsA of Burkholderia cenocepacia J2315 (gene ftsA, BCAL3458); Cloned in all four BACTH vectors; source: bacterial two-hybrid (BACTH) fusion, E. coli BTH101

Columns and labels:
[1] = target: B. cenocepacia J2315 FtsZ, BACTH hybrid (Burkholderia cenocepacia J2315) (UniProt B4E5Y7); assay: two-hybrid; BACTH (bacterial adenylate cyclase two-hybrid) in E. coli cya strain BTH101; T18 and T25 hybrids; beta-galactosidase on LB-IPTG-X-Gal and MacConkey plates and in liquid culture, 30 C; at least four-fold over BTH101(pUT18/pKT25) counted as an interaction
[2] = target: T1, MraZ (Burkholderia cenocepacia J2315); assay: EMSA; conditions: 20 mM Tris-HCl pH 7.5, 100 mM NaCl, 5 mM MgCl2, 0.1 mM DTT, 150 ng/uL BSA, 50 ng/uL herring sperm DNA, 30 min 37 C; 1.5% agarose in 0.5x TBE at 4 C
[3] = target: B4; assay: two-hybrid; BACTH (bacterial adenylate cyclase two-hybrid) in E. coli cya strain BTH101; T18 and T25 hybrids; beta-galactosidase on LB-IPTG-X-Gal and MacConkey plates and in liquid culture, 30 C; at least four-fold over BTH101(pUT18/pKT25) counted as an interaction
[4] = target: B1; assay: as above
[5] = target: T1, MraZ (Burkholderia cenocepacia J2315); assay: competition; conditions: 20 mM Tris-HCl pH 7.5, 100 mM NaCl, 5 mM MgCl2, 0.1 mM DTT, 150 ng/uL BSA, 50 ng/uL herring sperm DNA, 30 min 37 C; 1.5% agarose in 0.5x TBE at 4 C
[6] = target: B. cenocepacia FtsZ, protein of the sedimentation assays (Burkholderia cenocepacia); assay: co-sedimentation; with vesicles of E. coli total lipid extract (2 mg/mL); proteins 12 uM, 25 mM PIPES pH 6.8, 10 mM MgCl2, 2 mM GTP and/or ATP; 10 min 30 C; 20,000 x g 25 min 20 C
[7] = target: the molecule itself; assay: two-hybrid; BACTH (bacterial adenylate cyclase two-hybrid) in E. coli cya strain BTH101; T18 and T25 hybrids; beta-galactosidase on LB-IPTG-X-Gal and MacConkey plates and in liquid culture, 30 C; at least four-fold over BTH101(pUT18/pKT25) counted as an interaction

Molecule “B. cenocepacia J2315 FtsQ, BACTH hybrid (natural protein)” has a β-galactosidase activity, fold over the control strain [1] of 16 fold.

For “GGAGCGGCCCGCTTTTTTGACGAATTTTGTTAGTTAGAACAAGGACTTACGCGCACATGCTCATGCGACCCCTCATTCCAAAAACCGTTATAAATGAATGAGCTAGTGCAACTTGTGAAGGTGATACGTGAGAAAGACGGCCCAGACGGGCGTGCGGACGGGGCTTTCGGGGGCGGGAAAACGAGGAGTGAGCGGGCGGTATCGGGGGCGGTGAACCGGGGCGGCGTCCCACGCCACCCCGGCGCCAATC (double strand) [BS1-6-Fam]”, the binding [2] was “no binding”.

With “AAGTTGCACTAGCTCATTCATTTATAACGGTTTTTGGAATGAGGGGTCGCATGAGCATGTGCGCGTAAGTCCTTGTTCTAACTAACAAAATTCGTCAAAAAAGCGGGCCGCTCCCTTGACCGTGCCACACCCTTCCTCTAAAGTGGGAGACAGTGTGAGAAAGTGTATTTTTGTGTGATTTAGCAGGCTATTCCGGCTAAATTCTCAGCATTGAGCGGGTGCTTCGGTGCCCTGAACGGGAGAGCGGAAA (double strand) [BS2-6-Fam]” the binding [2] was “binds”.

“B. cenocepacia J2315 FtsN, BACTH hybrid (natural protein)” was tested, and the β-galactosidase activity, fold over the control strain [3] was 5 fold.

Molecule “B. cenocepacia J2315 ZapA, BACTH hybrid (natural protein)” has a β-galactosidase activity, fold over the control strain [4] of 10 fold.

For “AAGTTGCACTAGCTCATTCATTTATAACGGTTTTTGGAATGAGGGGTCGCATGAGCATGTGCGCGTAAGTCCTTGTTCTAACTAACAAAATTCGTCAAAAAAGCGGGCCGCTCCCTTGACCGTGCCACACCCTTCCTCTAAAGTGGGAGACAGTGTGAGAAAGTGTATTTTTGTGTGATTTAGCAGGCTATTCCGGCTAAATTCTCAGCATTGAGCGGGTGCTTCGGTGCCCTGAACGGGAGAGCGGAAA (double strand) [BS2 unlabeled]”, the binding [5] was “binds”.

Molecule “B. cenocepacia FtsZ, protein of the sedimentation assays (natural protein)” has a percent of the protein in the pellet fraction [6] of 50%.

“B. cenocepacia J2315 FtsE, BACTH hybrid (natural protein)” was tested, and the β-galactosidase activity, fold over the control strain [4] was 50 fold.

For B1, the “β-galactosidase activity, fold over the control strain” value (“β-galactosidase activity, fold” for short) [7] was 5 fold.

In the case of B2, the “β-galactosidase activity, fold” value ([4]; partners not purified) is reported as 25 fold.

In the case of B3, the “β-galactosidase activity, fold” value ([3]; partners not purified) is reported as 32 fold and the “β-galactosidase activity, fold” value ([4]; partners not purified) is reported as 4.5 fold.

For B4, the “β-galactosidase activity, fold” value ([4]; partners not purified) was 5 fold.
